What was measured:
[1] = target: zcyto21 (human IL-29) (human) (UniProt Q8IU54); assay: cell-based or functional assay
[2] = target: T1, zcyto24 (mouse IL-28A) (mouse) (UniProt Q4VK74); assay: cell-based or functional assay
T1 sequence: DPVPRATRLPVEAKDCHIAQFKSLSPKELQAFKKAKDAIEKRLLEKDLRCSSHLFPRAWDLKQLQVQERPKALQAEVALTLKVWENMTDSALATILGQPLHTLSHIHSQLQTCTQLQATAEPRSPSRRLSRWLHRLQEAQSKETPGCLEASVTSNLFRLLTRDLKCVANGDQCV

[3] = target: T2, zcyto20 (human IL-28A) (human) (UniProt Q8IZJ0); assay: cell-based or functional assay
T2 sequence: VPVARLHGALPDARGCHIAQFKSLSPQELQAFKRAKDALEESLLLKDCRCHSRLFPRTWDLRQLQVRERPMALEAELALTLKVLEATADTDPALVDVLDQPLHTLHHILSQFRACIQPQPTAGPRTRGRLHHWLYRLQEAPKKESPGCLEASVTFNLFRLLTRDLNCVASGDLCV

[4] = system: liver, spleen and blood of mice; assay: ISG gene expression (OAS, Pkr, Mx1) in liver, spleen and blood of injected C57BL/6 mice (real-time PCR); format: in vivo, mouse; conditions: livers of mice, 100 μg i.v.
Description: Mice were sacrificed at various time points (1 hr-48 hr). Spleens and livers were isolated from mice, and RNA was isolated. RNA was also isolated from the blood cells. The cells were pelleted and RNA isolated from pellets using RNAEasy®-kit (Qiagen). RNA was treated with DNase (Amicon) to rid RNA of any contaminating DNA. cDNA was generated using Perkin-Elmer RT mix (Perkin-Elmer). ISG gene induction was measured by real-time PCR using primers and probes specific for mouse OAS, Pkr and Mx1. To obtain quantitative data, HPRT real-time PCR was duplexed with ISG PCR. A standard curve was calculated using known amounts of IFN-stimulated mouse PBLs. All data are shown as expression relative to internal HPRT expression.

[5] = system: 293 HEK cells overexpressing zcytor19; assay: Inhibition of ligand-induced ISRE-luciferase signaling by soluble receptors; format: cell-based, human; conditions: 10 micrograms/ml soluble receptor

Sequence of zcyto21 (human IL-29) (human) (Q8IU54 20-200): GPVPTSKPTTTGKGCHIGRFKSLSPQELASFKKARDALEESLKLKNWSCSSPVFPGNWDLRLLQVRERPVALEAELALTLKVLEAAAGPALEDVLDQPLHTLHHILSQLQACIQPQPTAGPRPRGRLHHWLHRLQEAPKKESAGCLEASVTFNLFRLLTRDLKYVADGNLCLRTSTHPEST

In the case of “human CRF2-4-Fc homodimer (from UniProt Q08334 20-220) (Fc fusion)”, the Percent Inhibition of Ligand-induced Interferon Stimulated Response Element (ISRE) Signaling by Soluble Receptors [1] is reported as 79%, the Percent Inhibition of Ligand-induced Interferon Stimulated Response Element (ISRE) Signaling by Soluble Receptors [2] is reported as 82% and the Percent Inhibition of Ligand-induced Interferon Stimulated Response Element (ISRE) Signaling by Soluble Receptors [3] is reported as 80%.

Work on “human zcytor19-Fc/human CRF2-4-Fc heterodimer (from UniProt Q08334 20-220) (Fc fusion)” yielded a Percent Inhibition of Ligand-induced Interferon Stimulated Response Element (ISRE) Signaling by Soluble Receptors [1] of 16%, a Percent Inhibition of Ligand-induced Interferon Stimulated Response Element (ISRE) Signaling by Soluble Receptors [2] of 47% and a Percent Inhibition of Ligand-induced Interferon Stimulated Response Element (ISRE) Signaling by Soluble Receptors [3] of 16%.

With “MetIL-29-PEG: E. coli derived pegylated Met IL-29” the “Mx1 3 hr” value ([4]; 3 hr) was 537.51 fold expression over HPRT expression, the “OAS 3 hr” value ([4]; 3 hr) was 91.29 fold expression over HPRT expression and the “PKR 3 hr” value ([4]; 3 hr) was 18.24 fold expression over HPRT expression. The “Mx1 6 hr” value ([4]; 6 hr) was 124.99 fold expression over HPRT expression, the “OAS 6 hr” value ([4]; 6 hr) was 65.93 fold expression over HPRT expression and the “PKR 6 hr” value ([4]; 6 hr) was 13.93 fold expression over HPRT expression. The “Mx1 12 hr” value ([4]; 12 hr) was 33.58 fold expression over HPRT expression, the “OAS 12 hr” value ([4]; 12 hr) was 54.04 fold expression over HPRT expression and the “PKR 12 hr” value ([4]; 12 hr) was 4.99 fold expression over HPRT expression. The “Mx1 24 hr” value ([4]; 24 hr) was 35.82 fold expression over HPRT expression, the “OAS (24 hr)” value ([4]; 24 hr) was 20.81 fold expression over HPRT expression and the “PKR 24 hr” value ([4]; 24 hr) was 3.77 fold expression over HPRT expression.

B1: huCRF2-4-Fc: homodimeric soluble receptor Fc fusion (protein)
chain: MVPPPENVRMNSVNFKNILQWESPAFAKGNLTFTAQYLSYRIFQDKCMNTTLTECDFSSLSKYGDHTLRVRAEFADEHSDWVNITFCPVDDTIIGPPGMQVEVLADSLHMRFLAPKIENEYETWTMKNVYNSWTYNVQYWKNGTDEKFQITPQYDFEVLRNLEPWTTYCVQVRGFLPDRNKAGEWSEPVCEQTTHDETVPS
modifications: left off: a dimerising Fc or GST
notes: homodimeric soluble receptor Fc fusion
For B1, the “effect on ligand-induced signaling” value [5] was “No significant effects”.

B2: human zcytor19-Fc homodimer (Fc fusion, not shown: a dimerising Fc or GST)
chain: RPRLAPPQNVTLLSQNFSVYLTWLPGLGNPQDVTYFVAYQSSPTRRRWREVEECAGTKELLCSMMCLKKQDLYNKFKGRVRTVSPSSKSPWVESEYLDYLFEVEPAPPVLVLTQTEEILSANATYQLPPCMPPLDLKYEVAFWKEGAGNKTLFPVTPHGQPVQITLQPAASEHHCLSARTIYTFSVPKYSKFSKPTCFLLEVPEANWA
With B2 the Percent Inhibition of Ligand-induced Interferon Stimulated Response Element (ISRE) Signaling by Soluble Receptors [1] was 45%, the Percent Inhibition of Ligand-induced Interferon Stimulated Response Element (ISRE) Signaling by Soluble Receptors [2] was 90% and the Percent Inhibition of Ligand-induced Interferon Stimulated Response Element (ISRE) Signaling by Soluble Receptors [3] was 92%.

B3: human zcytor19-Fc homodimeric soluble receptor: homodimeric soluble receptor Fc fusion (protein)
chain: RPRLAPPQNVTLLSQNFSVYLTWLPGLGNPQDVTYFVAYQSSPTRRRWREVEECAGTKELLCSMMCLKKQDLYNKFKGRVRTVSPSSKSPWVESEYLDYLFEVEPAPPVLVLTQTEEILSANATYQLPPCMPPLDLKYEVAFWKEGAGNKTLFPVTPHGQPVQITLQPAASEHHCLSARTIYTFSVPKYSKFSKPTCFLLEVPEANWA
modifications: left off: a dimerising Fc or GST
notes: as for B1
With B3 the “inhibition of zcyto2′-induced signaling” value [5] was 45%.

B4: murine zcytor19-Ig homodimer (Fc fusion, part only; not given: Ig Fc portion, mouse, UniProt Q8CGK5 21-227, looked up, part only)
chain, part: RPRLAPPRNVTLFSQNFTVYLTWLPGLGSPPNVTYFVTYQSYIKTGWRPVEHCAGIKALVCPLMCLKKLNLYSKFKGRVQAASAHGRSPRVESRYLEYLFDVELAPPTLVLTQMEKILRVNATYQLPPCMPSLELKYQVEFWKEGLGSKTLFPDTPYGQPVQIPLQQGASRRHCLSARTVYTLIDIKYSQFSEPSCIFLEAPGDKRA
For B4, the Percent Inhibition of Ligand-induced Interferon Stimulated Response Element (ISRE) Signaling by Soluble Receptors [1] was 103%, the Percent Inhibition of Ligand-induced Interferon Stimulated Response Element (ISRE) Signaling by Soluble Receptors [2] was 89% and the Percent Inhibition of Ligand-induced Interferon Stimulated Response Element (ISRE) Signaling by Soluble Receptors [3] was 91%.

B5: muzcytor19-Ig: murine homodimeric soluble receptor Ig fusion (protein)
chain: RPRLAPPRNVTLFSQNFTVYLTWLPGLGSPPNVTYFVTYQSYIKTGWRPVEHCAGIKALVCPLMCLKKLNLYSKFKGRVQAASAHGRSPRVESRYLEYLFDVELAPPTLVLTQMEKILRVNATYQLPPCMPSLELKYQVEFWKEGLGSKTLFPDTPYGQPVQIPLQQGASRRHCLSARTVYTLIDIKYSQFSEPSCIFLEAPGDKRA
modifications: left off: a dimerising Fc or GST
notes: murine homodimeric soluble receptor Ig fusion
With B5 the “effect on ligand-induced signaling” value [5] was “No significant effects”.

From US20120114590A1 (priority 2005, published 2012)
